Measurements from patent publication US20190153097A1.

Target: Cynomolgus/Rhesus CTLA-4 (cynomolgus/rhesus)
Experiment: ELISA with Cynomolgus/Rhesus CTLA-4 titrated (said to be similar to the mouse CTLA-4 ELISA with coated antibodies)

EC50 (read off the curve): 200 pM
Substance: ipilimumab (human anti-huCTLA-4 marketed as Yervoy) (antibody)
